Test results from the domain aggregation screens of Martell et al. (2025).

experiment: soluble fraction after stress (log2 fold change); higher = more stays soluble; pooled small domains, quantitative proteomics; details: stress: 75 degC
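Note: 20 min heating vs room temperature control held 20 min.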

Sequence | soluble fraction (log2)
HMEDDPIYEQVMIFLLDKQITSAPELERRFKITHQRAIELLAQMEKTGIVSTMGHAGKRDVLT | -1.85
HMEDEFNQIASQKNVPSFLGKGKKEVINIAKKNKIKINLSGNGYVKRQIPAPGEVISHLDEVTIFLEPG | -0.0115
HMEDEVYFVPSPASRFNPWIAALASRRVPYRVEYDGAERRIAVPAGYAEKAGEELAAYERINHAWPR | -0.371
HMEDFDLSDTERKIIAQIGHGYSNKEIAQKLGFSEGTIRNYLSVILDKLDLRDRTQLAIWYLSR | -0.592
HMEDIAAIAQRIQGLRDIVGISVEEMAKALDISEQEYREYEKGETDFSFSFLYTVANVLGINITDLI | -1.29
HMEDIEEVIVEIDTVLRTHFDRGRTEVLFAEIETAGGRPFMTYLALLFMAHRGSVRLQQDDLFGDLWVKDP | 0.198
HMEDISLYKILRAHSIDNLKLSQWIIDSLKTKFSTIGELQDAKIDDIRMYRIQDVRIEKIKNAVTEYMA | -1.08
HMEDISQHAVKKLVQEMVMAEDPRDPLSDQQIAENLSRLGLKVARRTVAKYRAMLGIQPSNRRRK | -1.21
HMEDIVDLVVEPEAAGRRLDAWLASRIERLSRSRIKALIESGHVAIGGATIVEAKKPVNSGDVVQLSVPEG | -0.263
HMEDKQRRMGELVALLNRAAYAYYTKDEPIMADVQYDRLYDELLSLEKETGVQMADSPTHRV | 0.0301
HMEDLMEERKEHLLSVMKDPAYVPMKQKELAMLLNVPKGLREELNQVLDALVAEGSVVMSKRGKYTIPQ | -0.0948
HMEDNLVTYPNPTSDYIYVSKKVDLTVVNMLGDILIQKQNINVLDVTELTPGMYTIVIRYNNVTTNKRIIK | -0.017
HMEDPFATLGVHREASLDEIKRAYRRLAMFWHPDRNPEAVAGTEFKRVHAAYELLLDPQRLAEWQQAQAT | -0.19
HMEDPLAAQWKQGRKLFHDDYGYGIISKAFTAGDELVIMVQFENGGEKRFLPKYQAHNLLLVEQ | -1.33
HMEDQVITQFNMRLIRAVMPQGAPMIVVYEDPKDYPGLFVARLFDGRKSTHLIALADTLEDI | -0.31
HMEDVDTAALEKVIATAKGLNKNDYTATTWTTMQAALTNAEKALEAKKSQTSVDEAAKTLQAAIDGLKKAS | 0.336
HMEDVPYMIKLPSHHYLTKMVDGSTGWSLVQNSNTVVGSSKEELLKQYPEYEDFIVQEPLNV | -0.0186
HMEDVSTLAVKQRIDDLVKQENPAKPLSDSDIVARLKTDGIYIARRTVAKYRMELNIPSSSARKRAQQFS | -2.31
HMEDWTPERFVGAFVSGGPALRDEILLAATKDLSHAQATRLLKLAEARGLVHRSQPGPSERVRFVVARK | -0.518
HMEDYTPLQELGLKARYIELLEKGGIFSVEDLVQKSVDDLKDIDGIGEKTAKEIWEIVDSMVDF | 0.0226
HMEDYYKEDYYTEVLKIPKEYIKGFQYYLIEDAEFVNALNAKNKTMTSFLAKKLASDYIEIIHQEQ | -2.2
HMEEDDGVDFHERLTELNDEQVYYLINTEPAKVIALALDQLGQKRKINIMNRFNPDMKHSIIMELGKL | -0.543
HMEEDGAPLESREVLLDQAISQGKGTQWTIATETKLEDHIVSGAYSTDGKVTLAVFSPLGDGKYEFSSSVN | 0.181
HMEEDPIIIAQRFLNIFRQLHIFSEEKKESFNKMLLEQPAEIRGALRSLPGGGLLQDYIDDLESKA | -0.698
HMEEEEITIHIIGEVKYPGIVILKTGQRIIDAIDAAGGETEEADLNKINLAQLLSDGDKIYVPSINDN | 0.158
HMEEFAGYINGQPYYGPTHQHRGVKMVGAEHTQRPHPLVWDSVAKSLDNYDNRFQWVNGNLLQVV | -0.0201
HMEEFGRRLKERMIDKNMTEAELAQKTELWSSILTSYLKGERFPGYYTLLRIAEALDVSIDFLLGLRDEPE | -2.72
HMEEILLSVKADGTYWVDQKEVTLDEVGALLDKEPDRLLNIFMDEKVPVRHFINVVDIAKVKREGRFII | -0.27

Sequence | soluble fraction (log2)
HMEEIQLILAKNLKSIREKEKLSLEKVSQLTGVSKTMIGQIERGDSSPTLTTIWKIANGLKVSFTSLINNP | -3.06
HMEEKKYEVGDVVSFNYLYKNSFAEGKVSSLIHSGTITRIIDGRPAPYLINRGTGWLSNDLILT | -1.21
HMEEKNNIIVSYIEDKISELEKASMYVPNENKEKLIMAFKNRNEDIDVIKTRIDTIFNNSVAAYKENME | 0.557
HMEEKTMNLPPSAKLVYKILSYEGNLTQKEIINMTYLPERTVRHALELLLGKRLITRQAYLNDARQSVYG | -1.72
HMEEKVEVPNLSGKTYQQAKALLESYGLVAAKGGEEESEEPVGKVSRWSSAGKSVKKGTTITVWISGGI | -0.298
HMEEKWKENYEKIKLFISINNRYPSVYSEDKEEGLIGSFMSNQKRRKNKLSKEKMALFEALPNWIWE | -2.53
HMEELNFYPNPAYKYINLDYVGLKEIYTVLGKKLLETYDTRINISNLNSGIYLIKFKNQALRFVK | 0.0302
HMEELVGFEEKVRSILTSPLSAKEIKEKTHIEIDTRKLSKMLSELSFIKTEKKNGKKIFRLVS | -0.243
HMEEMADILKTRIDTLDLSTRTLNALTGANIRTVGGIARKKKEDLLELAGMGEKGIQEIKKVLGGFGITL | -0.157
HMEEPEYELLRQAVLALPEKYRLPIHLYYYEEYSVREIAEILQRKESAVQTQLQRGREKIRRSLTEKGVS | -0.874
HMEEPLIISIDSNGAVYLEVDSFKDQSIEMSSLREIIEKIILANPDIQVVVRGDSEVKYEKVMDLMSILQS | -1.58
HMEEQGLPLVIISDGKVLAQNLTLRSLDRAWLQDQLTQHGHSKPEQVFLLTVDERGAVYYVPKE | -0.556
HMEEQQIQLIQMKMEKDHKYVGKKISELRIKNMLIVLIKRGDEDIIPRAEVKIKEGDILVLSAQSYEG | -0.424
HMEETAFEKLSPLQKLRALGKPLTMINMRDGSQIAGSVQRSDDKFLYLDTGDGIAKLPVEEILRRTPM | 0.149
HMEETIVFGQQKAINALSSDAGLSSNELDSYLKKRYKRPLYQLSKSEGAELIQGFQDGSLSKASIMDYVS | 0.19
HMEEVIEVEGKITAVLPSTMFRAELENGHQVLAHISGKLRKHFIKITVGDIVKMEMSTQDLQKARIV | -0.411
HMEEVRFPLKKEILLWALKEAQVDEDEVFRKFTNLEKWINGEKHPTFKQIESLANYLKIPFGYMFLEKPPI | -1.02
HMEEVVIPDLAGLTEEEATKVLMAKELKLKVSGSQHSDIEKGLIISQDPPAGEKGAKNSQVAVVTSSG | 0.0827
HMEFDFGAILSGNGGSELYSGYSAEQKAALVEAAKADGMDVEFGADGSTTFKDKDGSEVVQKADGTWTV | 0.235
HMEFDVELTSFEEAKKLKVIKEVKDVTGLSLGEAKDLVMGAPKAIKTGVSKEEAEAIKTQIEAAGAVVTI | 0.101
HMEFDYIVKVPDVRNKKIEDAGKILIDLGLKYTTESDYITQDLKVIDQFPLPGTEVSKGSIIDIYLEEDFK | -0.473
HMEFEKYKYHYIFDDVLGLRIVWDRGKEHFSYFVNEELAEKSRKSDKDALEVMFYLEHKRWPEEGELENY | -1.67
HMEFEYTVVVPETRGKTIGEAGRILLDLELKYTSESMNIREDSKVIDQFPSPGTEVSKGSIIDLYLDE | -0.137
HMEFQISLAAARVNANMTQEDTARAMKVSKTTIVNWEKGKVIPGIPEVEMMSRLYGIPQDYIFLP | -3.08
HMEFSYLEEIGHEKGDLIKGLQLIQQKEGYVSDDAVRAVAENFGMSPAEVEGVLTFYAQFKR | -0.162
HMEGFKSVYFLTTPSGAEISDRSVGDIISKTPSLVSAQEGTEFEFNLKGYQPSFYMINKRSPDRVFVELIP | -0.545
HMEGLEKDDGGYYFEKDNGERARNEWVYVEYEGKGYWYYMTDYGYPLRSAITPDGYKVNSNGHWIDEGN | -0.644
